pKi: −log10 of the molar value.
Key:
[1] = biological target: activated coagulation factor XI (FXIa); assay: chromogenic enzyme inhibition assay; 200 pM FXIa, 500 μM S2366, 37 °C, 110 mM Tris-HCl pH 8.0, 250 mM NaCl, 1% BSA; residual activity in triplicate at at least six inhibitor concentrations; Ki from a linear fit of 1/v against inhibitor concentration
[2] = biological target: bovine pancreatic trypsin (bovine); assay: chromogenic enzyme inhibition assay; 1 nM trypsin, 500 μM S2765, 37 °C, 110 mM Tris-HCl pH 8.0, 250 mM NaCl, 1% BSA; residual activity in triplicate at at least six inhibitor concentrations; Ki from a linear fit of 1/v against inhibitor concentration
[3] = biological target: activated coagulation factor XII (FXIIa); assay: chromogenic enzyme inhibition assay; 1 nM FXIIa, 500 μM S2302, 37 °C, 110 mM Tris-HCl pH 8.0, 250 mM NaCl, 1% BSA; residual activity in triplicate at at least six inhibitor concentrations; Ki from a linear fit of 1/v against inhibitor concentration

Row | pKi [1] | pKi [2] | pKi [3] | Substance
1 | 4.03 | 4.93 | – | CHFI-2, synthetic cyclic peptide that resembles the CHFI protease-binding loop (from UniProt P01088 48-73)
2 | – | – | 6.94 | CHFI-123 (from UniProt P01088 29-121) (domain or fragment)
3 | – | 8.66 | 8.49 | CHFI-234 (from UniProt P01088 40-136) (domain or fragment)
4 | – | 9.00 | 9.00 | CHFI-1234 (from UniProt P01088 29-108) (domain or fragment)

Source: article PMC4022879
